Data on 6 molecules can be found in US20210130437A1 (ALPINE IMMUNE SCIENCES, published 2021).

Test [1] deals with T1, TIGIT (UniProt Q495A1 22-244).
T1 construct: whole, on cells; cell-expressed counter structure
T1 sequence (looked up): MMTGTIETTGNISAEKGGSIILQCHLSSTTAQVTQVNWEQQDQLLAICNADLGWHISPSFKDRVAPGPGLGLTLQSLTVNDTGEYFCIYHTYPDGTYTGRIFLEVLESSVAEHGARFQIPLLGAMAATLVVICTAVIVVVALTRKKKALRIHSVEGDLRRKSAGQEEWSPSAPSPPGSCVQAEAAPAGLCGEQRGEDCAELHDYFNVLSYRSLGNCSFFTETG
Description: flow cytometry, cells expressing TIGIT.

A further test deals with T2, CD226 (Homo sapiens (Human), UniProt Q15762 19-336).
T2 construct: on transfected cells
T2 sequence: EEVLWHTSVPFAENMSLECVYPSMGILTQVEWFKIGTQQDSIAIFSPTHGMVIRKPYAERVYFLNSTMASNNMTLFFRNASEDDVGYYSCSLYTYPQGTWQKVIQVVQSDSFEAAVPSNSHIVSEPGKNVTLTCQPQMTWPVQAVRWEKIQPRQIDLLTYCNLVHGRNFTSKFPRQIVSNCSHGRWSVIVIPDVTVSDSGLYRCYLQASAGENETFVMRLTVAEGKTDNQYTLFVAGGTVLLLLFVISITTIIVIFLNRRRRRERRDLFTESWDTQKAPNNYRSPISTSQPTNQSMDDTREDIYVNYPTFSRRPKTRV
Put plainly: flow cytometry, transfected cells. (A flow cytometer gives signals particle by particle.)

Test [2] has as its target T3, TIGIT (Homo sapiens (Human), UniProt Q495A1 22-244).
T3 construct: on transfected cells
T3 sequence: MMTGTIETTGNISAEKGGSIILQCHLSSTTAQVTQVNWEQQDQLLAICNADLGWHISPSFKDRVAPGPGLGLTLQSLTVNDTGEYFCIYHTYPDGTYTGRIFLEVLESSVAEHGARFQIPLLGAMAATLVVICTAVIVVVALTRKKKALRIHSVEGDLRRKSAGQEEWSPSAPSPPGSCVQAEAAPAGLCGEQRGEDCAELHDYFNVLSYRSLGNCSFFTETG
Description: flow cytometry, transfected cells.

In the next test the target is T4, CD96 (UniProt P40200 22-585, limits assumed).
T4 construct: whole, on cells; on transfected cells
T4 sequence (looked up): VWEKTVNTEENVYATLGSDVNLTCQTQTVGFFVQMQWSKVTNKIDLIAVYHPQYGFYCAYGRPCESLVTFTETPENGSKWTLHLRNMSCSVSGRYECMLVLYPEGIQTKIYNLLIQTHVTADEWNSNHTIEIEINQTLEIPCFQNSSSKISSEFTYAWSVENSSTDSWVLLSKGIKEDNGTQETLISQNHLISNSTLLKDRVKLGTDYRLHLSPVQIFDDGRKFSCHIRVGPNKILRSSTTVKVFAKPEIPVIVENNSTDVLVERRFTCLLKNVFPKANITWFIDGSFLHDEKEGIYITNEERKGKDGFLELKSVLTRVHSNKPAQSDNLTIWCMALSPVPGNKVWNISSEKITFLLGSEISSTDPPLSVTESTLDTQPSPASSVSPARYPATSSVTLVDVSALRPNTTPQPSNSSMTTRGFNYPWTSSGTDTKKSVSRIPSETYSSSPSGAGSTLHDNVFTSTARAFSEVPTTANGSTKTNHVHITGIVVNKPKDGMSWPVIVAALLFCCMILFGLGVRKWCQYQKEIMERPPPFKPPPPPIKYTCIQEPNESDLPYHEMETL
Put plainly: flow cytometry, transfected cells.

For another test, the target named is T5, CD28 (Homo sapiens (Human), UniProt P10747 19-220).
T5 construct: Expressed on transfected HEK293 cells
Put plainly: flow cytometry, HEK293 cells transfected with CD28.

B1: variant CD155 IgV-Fc V9L, V11M, P18S, N35S, S54G, Q62K, L79P, L104M, T107M, V115M (Fc fusion, not shown: a dimerising Fc or GST)
chain: WPPPGTGDLVMQAPTQVSGFLGDSVTLPCYLQVPSMEVTHVSQLTWARHGESGGMAVFHQTKGPSYSESKRLEFVAARPGAELRNASLRMFGLRVEDEGNYTCMFVMFPQGSRSMDIWLRVL
As to B1, the “MFI at 25 nM” value with TIGIT [1] came to 3000.

B2: Wildtype CD155 IgV Fc (Fc fusion, not shown: a dimerising Fc or GST)
chain: WPPPGTGDVVVQAPTQVPGFLGDSVTLPCYLQVPNMEVTHVSQLTWARHGESGSMAVFHQTQGPSYSESKRLEFVAARLGAELRNASLRMFGLRVEDEGNYTCLFVTFPQGSRSVDIWLRVL
On to B2, for which the MFI parental ratio with CD226, with TIGIT [2] and with CD96 was 1 ratio each time.

B3: variant CD155 IgV-Fc P18L, L79V, F91S (Fc fusion, not shown: a dimerising Fc or GST)
chain: WPPPGTGDVVVQAPTQVLGFLGDSVTLPCYLQVPNMEVTHVSQLTWARHGESGSMAVFHQTQGPSYSESKRLEFVAARVGAELRNASLRMSGLRVEDEGNYTCLFVTFPQGSRSVDIWLRVL
With B3, the MFI parental ratio amounted to 1.4 ratio with CD226, 1.5 ratio in the test with TIGIT [2] and 1.1 ratio in the test with CD96.

B4: variant CD155 IgV-Fc A81V, L83P (Fc fusion, not shown: a dimerising Fc or GST)
chain: WPPPGTGDVVVQAPTQVPGFLGDSVTLPCYLQVPNMEVTHVSQLTWARHGESGSMAVFHQTQGPSYSESKRLEFVAARLGVEPRNASLRMFGLRVEDEGNYTCLFVTFPQGSRSVDIWLRVL
In the case of B4, the MFI parental ratio turned out to be 1.1 ratio with CD226, 1.1 ratio with TIGIT [2] and 0.8 ratio with CD96.

B5: variant CD155 IgV-Fc P18T, F91S, R94H (Fc fusion, not shown: a dimerising Fc or GST)
chain: WPPPGTGDVVVQAPTQVTGFLGDSVTLPCYLQVPNMEVTHVSQLTWARHGESGSMAVFHQTQGPSYSESKRLEFVAARLGAELRNASLRMSGLHVEDEGNYTCLFVTFPQGSRSVDIWLRVL
Turning to B5, the MFI parental ratio in the test with CD226 is 1 ratio; in the test with TIGIT [2], 1.1 ratio; with CD96 it was 0.8 ratio.

B6: WT CD80 ECD Fc (Fc fusion, not shown: a dimerising Fc or GST)
chain: VIHVTKEVKEVATLSCGHNVSVEELAQTRIYWQKEKKMVLTMMSGDMNIWPEYKNRTIFDITNNLSIVILALRPSDEGTYECVVLKYEKDAFKREHLAEVTLSVKADFPTPSISDFEIPTSNIRRIICSTSGGFPEPHLSWLENGEELNAINTTVSQDPETELYAVSSKLDFNMTTNHSFMCLIKYGHLRVNQTFNWNTTKQEHFPDN
As for B6, the “MFI at 66.6 nM” value with CD28 worked out at 3070.
